Experimental data published in patent US20220033501A1 (SHANGHAI PHARMAEXPLORER, published 2022).

How the values were obtained:
[1] = target: T1, monkey TIM-3 extracellular domain protein with hFc tag (cTIM-3-hFc) (monkey); assay: ELISA, coated monkey TIM-3 ECD protein, 0.0007 nM antibody
T1 construct: not shown: human IgG Fc fragment (hFc) of the pCpC vector
T1 chain: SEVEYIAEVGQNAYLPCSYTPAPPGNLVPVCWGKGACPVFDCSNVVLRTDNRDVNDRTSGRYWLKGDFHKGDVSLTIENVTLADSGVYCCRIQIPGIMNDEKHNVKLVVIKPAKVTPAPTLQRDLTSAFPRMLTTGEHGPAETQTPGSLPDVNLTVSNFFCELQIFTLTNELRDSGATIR

[2] = target: T2, human TIM-3 on CHOK1 stable cell line (CHOK1-hTIM-3) (human, UniProt Q8TDQ0 22-301); assay: FACS, CHOK1-hTIM-3 cells, 40 nM antibody
T2 sequence: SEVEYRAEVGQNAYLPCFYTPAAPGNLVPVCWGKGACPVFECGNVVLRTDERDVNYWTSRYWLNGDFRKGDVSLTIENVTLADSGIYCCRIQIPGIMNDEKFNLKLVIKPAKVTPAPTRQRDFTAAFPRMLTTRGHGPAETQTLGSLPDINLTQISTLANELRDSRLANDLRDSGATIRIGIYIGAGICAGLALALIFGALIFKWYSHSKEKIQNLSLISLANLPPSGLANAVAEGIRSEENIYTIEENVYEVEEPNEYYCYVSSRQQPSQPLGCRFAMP

[3] = target: T3, murine TIM-3 extracellular domain protein with hFc tag (mTIM-3-hFc) (mouse, UniProt Q8VIM0 29-191); assay: ELISA, coated mouse TIM-3 ECD protein, 66.667 nM antibody
T3 construct: also called mouse TIM-3 extracellular domain protein; not shown: human IgG Fc fragment (hFc) of the pCpC vector
T3 chain: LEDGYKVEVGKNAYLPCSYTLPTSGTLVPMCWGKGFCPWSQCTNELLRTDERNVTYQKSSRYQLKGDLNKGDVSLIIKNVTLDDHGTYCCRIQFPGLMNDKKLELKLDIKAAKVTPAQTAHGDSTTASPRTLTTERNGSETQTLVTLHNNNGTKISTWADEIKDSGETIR

[4] = target: T4, monkey TIM-3 on CHOK1 stable cell line (CHOK1-cTIM-3) (monkey); assay: FACS, CHOK1-cTIM-3 cells, 40 nM antibody
T4 chain: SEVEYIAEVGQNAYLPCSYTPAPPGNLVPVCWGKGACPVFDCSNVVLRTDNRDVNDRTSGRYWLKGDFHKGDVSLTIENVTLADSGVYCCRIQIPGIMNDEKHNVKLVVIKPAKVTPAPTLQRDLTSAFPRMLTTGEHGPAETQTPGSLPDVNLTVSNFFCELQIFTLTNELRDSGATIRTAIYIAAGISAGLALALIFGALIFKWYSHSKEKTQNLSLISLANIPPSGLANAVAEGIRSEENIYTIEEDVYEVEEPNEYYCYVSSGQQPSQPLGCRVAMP

[5] = target: T4, monkey TIM-3 on CHOK1 stable cell line …; assay: FACS, CHOK1-cTIM-3 cells, 1.6 nM antibody
[6] = target: T5, murine TIM-3 protein with hFc tag (mTIM-3-hFc protein) (mouse; human, UniProt Q8VIM0 29-191); assay: ELISA, coated mTIM-3-hFc; antibody 0.6667 nM
T5 construct: Made in HEK293 cells; also called mouse TIM-3 extracellular domain protein; not shown: human IgG Fc fragment (hFc) of the pCpC vector
T5 chain: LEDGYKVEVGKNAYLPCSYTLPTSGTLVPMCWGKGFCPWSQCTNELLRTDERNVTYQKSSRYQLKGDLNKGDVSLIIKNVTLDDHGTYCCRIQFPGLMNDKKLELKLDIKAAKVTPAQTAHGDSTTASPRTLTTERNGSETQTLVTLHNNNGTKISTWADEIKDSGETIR
Source text: (§1) The amino acid sequence 22-200 of the extracellular domain of the human TIM-3 protein described in the step of Example 1 (as shown in SEQ ID NO. 71 in the sequence listing) was cloned into a pCpC vector having a human IgG Fc fragment (hFc), and transfected into HEK293 cells. The cell culture medium was collected, and purified to obtain the human TIM-3 protein with hFc tag (herein referred to as hTIM-3-hFc protein). The amino acid sequence 22-201 of the extracellular domain of the monkey TIM-3 protein (as shown in SEQ ID NO. 72 in the sequence listing) was cloned into a pCpC vector having a human IgG Fc fragment (hFc), and transfected into HEK293 cells. The cell culture medium was collected, and purified to obtain the monkey TIM-3 protein with hFc tag (herein referred to as cTIM-3-hFc protein). […] The cell culture medium was collected, and purified to obtain the murine TIM-3 protein with hFc tag (herein referred to as mTIM-3-hFc protein). Purified human, monkey, and mouse TIM-3 extracellular domain proteins (hTIM-3-hFc, cTIM-3-hFc, and mTIM-3-hFc) were diluted with PBS to a final concentration of 1.0 μg/ml and then added to a 96-well ELISA plate with 100 μl per well. The plate was sealed with plastic film and incubated overnight at 4° C. The plate was washed 4 times with the plate washing solution (PBS+0.01% Tween20) on the next day, and added with the blocking solution (PBS+0.01% Tween20+1% BSA) and sealed at room temperature for 1-2 hours. The blocking solution was poured out. 50-100 μl of the antibody sample to be tested was added to each well. The plate was incubated at 37° C. for 1-2 hours, and washed 2-3 times with plate washing solution (PBS+0. 01% Tween20). HRP (horseradish peroxidase) labeled secondary antibody was added. The plate was incubated at 37° C. for 1-2 hours, and washed 2-3 times with plate washing solution (PBS+0. 01% Tween20). […] of TMB substrate was added to each well. After incubated at room temperature for 15-30 minutes, the plate was added with […] stop solution (1.0N HCl) to each well. An ELISA plate reader (TiterMax 384plus, Molecular Device) was used to read the A450 nm value.

[7] = target: T6, human TIM-3 protein with hFc tag (hTIM-3-hFc protein) (human, UniProt Q8TDQ0 22-200); assay: ELISA, coated hTIM-3-hFc; antibody 0 nM (blank)
T6 construct: also called immunogen 1; human TIM-3 extracellular domain protein; not shown: human IgG Fc fragment (hFc) of the pCpC vector
T6 sequence: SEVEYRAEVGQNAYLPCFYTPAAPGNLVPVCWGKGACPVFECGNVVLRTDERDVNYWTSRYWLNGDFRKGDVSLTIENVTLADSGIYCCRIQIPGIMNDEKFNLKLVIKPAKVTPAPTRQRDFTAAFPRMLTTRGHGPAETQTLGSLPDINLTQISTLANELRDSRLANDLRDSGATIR
Source text: as §1

[8] = target: T5, murine TIM-3 protein with hFc tag …; assay: ELISA, coated mTIM-3-hFc; antibody 0.0067 nM
Source text: as §1

B1: 7A4F10 fully human TIM-3 antibody (human IgG4, kappa) (antibody, V domains shown)
VH: EVQLLESGGGLVQPGGSLRLSCAASGFTFRTHLISWVRQAPGKGLEWVAAITGSGGSTYYADSVKGRFIISRDNSKNTLFLQMNSLRAEDTAVYYCAKDGGSGSYDDFWGQGTLVTVSS
VL: ETVLTQSPVTLSLSPGERATLSCRASQSVGSYLAWYQQKPGQAPRLLIYDASNRATGIPARFSGSGSGTDFTLTISSLEPEDFAVYYCQQRSNWPPTFGQGTKVEIK
- OD450 [1]: 0.14
- Mean fluorescence intensity [2]: 313
- OD450 [3]: 0.99
- Mean fluorescence intensity [4]: 336
- Mean fluorescence intensity [5]: 177

B2: 7A4F10 (TIM-3 antibody purified from hybridoma, chimeric antibody of Example 2) (antibody, V domains shown)
VH: EVQLLESGGGLVQPGGSLRLSCAASGFTFRTHLISWVRQAPGKGLEWVAAITGSGGSTYYADSVKGRFIISRDNSKNTLFLQMNSLRAEDTAVYYCAKDGGSGSYDDFWGQGTLVTVSS
VL: ETVLTQSPVTLSLSPGERATLSCRASQSVGSYLAWYQQKPGQAPRLLIYDASNRATGIPARFSGSGSGTDFTLTISSLEPEDFAVYYCQQRSNWPPTFGQGTKVEIK
notes: From hybridoma of Harbour H2L2 transgenic mice: human variable regions, rat constant regions
- OD450 [6]: 0.67
- OD450 [7]: 0.11
- OD450 [8]: 0.64

B3: 34B6D8 (TIM-3 antibody purified from hybridoma, chimeric antibody of Example 2) (antibody, V domains shown)
VH: EVQLVESGGGLVQPGGSLRLSCAASGFTFSTYWMTWVRQAPGKRLEWVANIKQGGGDKYYVDSVKGRFTISTDNAKNSLYLQMNSLRAEDTAVYYCARGSNWFDPWGQGTLVTVSS
VL: EIVMTQSPATLSMSPGERATLSCRASQSVYDNLAWYQQKPGQAPRLLIYGASTRATGIPARFSGSGSGTEFTLTISSLQSEDFALYYCQQYTHWPITFGQGTRLEIK
notes: as for B2
- OD450 [6]: 0.65
- OD450 [7]: 0.12
- OD450 [8]: 0.65

B4: 215A8F2 fully human TIM-3 antibody (human IgG4, kappa) (antibody, V domains shown)
VH: QVQLQQWGAGLLKPSETLSLTCTVYGGSFSGYYWNWIRQPPGKGLEWLGEINHSGSTNYNPSLKRRVTISVDTSKNQFSLKLSSVTAADTAVYYCARVYYYGPFDFWGQGTLVTVSS
VL: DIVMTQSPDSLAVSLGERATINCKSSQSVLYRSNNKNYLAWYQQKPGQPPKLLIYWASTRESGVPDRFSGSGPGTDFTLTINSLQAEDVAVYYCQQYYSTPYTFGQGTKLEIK
- OD450 [1]: 0.15
- Mean fluorescence intensity [2]: 283
- OD450 [3]: 1.08
- Mean fluorescence intensity [4]: 366
- Mean fluorescence intensity [5]: 252

B5: 215A8F2 (TIM-3 antibody purified from hybridoma, chimeric antibody of Example 2) (antibody, V domains shown)
VH: QVQLQQWGAGLLKPSETLSLTCTVYGGSFSGYYWNWIRQPPGKGLEWLGEINHSGSTNYNPSLKRRVTISVDTSKNQFSLKLSSVTAADTAVYYCARVYYYGPFDFWGQGTLVTVSS
VL: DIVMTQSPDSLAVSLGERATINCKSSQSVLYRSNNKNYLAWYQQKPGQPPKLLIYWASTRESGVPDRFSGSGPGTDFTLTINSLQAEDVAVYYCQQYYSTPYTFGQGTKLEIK
notes: as for B2
- OD450 [6]: 0.65
- OD450 [7]: 0.11
- OD450 [8]: 0.64

B6: 57F4E5 fully human TIM-3 antibody (human IgG4, kappa) (antibody, V domains shown)
VH: EVQLVESGGGLVQPGGSLRLSCAASGFTFSSYWMSWVRQAPGKGLEWVANIKQDGSEKYYVDSVKGRFTISRDSAKNSLYLQMNSLRAEDTAMYFCARDSNFFDYWGQGTLVTVSS
VL: ETVMTQSPATLSVSPGERATLSCRASQSVSSNLAWYQRKPGQAPRLLIYFSSTRATGIPARFSGSGSGTEFTLTISSLQSEDFAVYYCQQYNNWPLTFGGGTKVEIK
- OD450 [1]: 0.18
- Mean fluorescence intensity [2]: 147
- OD450 [3]: 1.55
- Mean fluorescence intensity [4]: 269
- Mean fluorescence intensity [5]: 207

B7: 134H3G6 (TIM-3 antibody purified from hybridoma, chimeric antibody of Example 2) (antibody, V domains shown)
VH: EVQLVESGGGLVQPGGSLRLSCAASGFTFSNSWMTWVRQAPGKGLEWVANIKQAGTEKYYVDSVKGRFTISRDNAKNSLYLQMNSLRAEDTAVYYCNSGSNYFDYWGQGTLVTVSS
VL: EIVMTQSPATLSVSPGERATLSCRARQNFYSNLAWYQQKPGQAPRLLIYGASTRATGIPARFSGSGSGTEFTLTISSLQSEDFAVYYCQQYNNWPLTFGGGTKVEIK
notes: as for B2
- OD450 [6]: 0.66
- OD450 [7]: 0.12
- OD450 [8]: 0.64

B8: 134H3G6 fully human TIM-3 antibody (human IgG4, kappa) (antibody, V domains shown)
VH: EVQLVESGGGLVQPGGSLRLSCAASGFTFSNSWMTWVRQAPGKGLEWVANIKQAGTEKYYVDSVKGRFTISRDNAKNSLYLQMNSLRAEDTAVYYCNSGSNYFDYWGQGTLVTVSS
VL: EIVMTQSPATLSVSPGERATLSCRARQNFYSNLAWYQQKPGQAPRLLIYGASTRATGIPARFSGSGSGTEFTLTISSLQSEDFAVYYCQQYNNWPLTFGGGTKVEIK
- OD450 [1]: 0.15
- Mean fluorescence intensity [2]: 218
- OD450 [3]: 0.94
- Mean fluorescence intensity [4]: 376
- Mean fluorescence intensity [5]: 326

B9: 57F4E5 (TIM-3 antibody purified from hybridoma, chimeric antibody of Example 2) (antibody, V domains shown)
VH: EVQLVESGGGLVQPGGSLRLSCAASGFTFSSYWMSWVRQAPGKGLEWVANIKQDGSEKYYVDSVKGRFTISRDSAKNSLYLQMNSLRAEDTAMYFCARDSNFFDYWGQGTLVTVSS
VL: ETVMTQSPATLSVSPGERATLSCRASQSVSSNLAWYQRKPGQAPRLLIYFSSTRATGIPARFSGSGSGTEFTLTISSLQSEDFAVYYCQQYNNWPLTFGGGTKVEIK
notes: as for B2
- OD450 [6]: 0.64
- OD450 [7]: 0.12
- OD450 [8]: 0.68

B10: 39E5H1 (TIM-3 antibody purified from hybridoma, chimeric antibody of Example 2) (antibody, V domains shown)
VH: EVQLVESGGGLVQPGGSLRLSCAASGFTFSSYWMSWVRQAPGKGLEWVANIKRGGSERYYVDSVKGRFTISGDNAKNSVYLQMNSLRAEDTAVYYCARGSNWFDPWGQGTLVTVSS
VL: ETVMTQSPAILSVSPGERATLSCRASQSVYSNLAWYQQKLGQAPRLLIYDASTRATGIPARFSGSGSGTEFTLTISSLQSEDFAVYYCQQYNNWPITFGQGTRLEIK
notes: as for B2
- OD450 [6]: 0.66
- OD450 [7]: 0.12
- OD450 [8]: 0.64

B11: 18D2H2 (TIM-3 antibody purified from hybridoma, chimeric antibody of Example 2) (antibody, V domains shown)
VH: EVQLVESGGDLVQPGGSLRLSCAASGFTFSTYWMTWVRQAPGRGLEWVANIKQDGSAKYYVDSVKGRFTLSRDDAKNSLYLQMNSLRAEDTAVYYCARGSNWFDYWGQGTLVTVSS
VL: ETVMTQSPATLSVSPGERATLSCRANQNVYSNLAWYQQKPGQAPRLLIYDASTRATGFPARFSGSGSGTEFTLTISSLQSEDFAVYYCQQYNNWPLTFGGGTKVEIK
notes: as for B2
- OD450 [6]: 0.66
- OD450 [7]: 0.11
- OD450 [8]: 0.63
